# Reference: PMC2821923, “Visualizing Interactions along the Escherichia coli Twin-Arginine Translocation Pathway Using Protein Fragment Complementation” (PLoS ONE, 2010)
# B1: TatA(F39A) fused to a YFP fragment (F39A-Y1; F39A-Y2) (natural protein, E. coli, UniProt P69428 1-89, looked up)
# chain: MGGISIWQLLIIAVIVVLLFGTKKLGSIGSDLGASIKGAKKAMSDDEPKQDKTSQDADFTAKTIADKQADTNQEQAKTEDAKRHDKEQV
# notes: TatA, E. coli, full length, with F39A in the predicted amphipathic region; also called TatA(F39A)-Y1; TatA(F39)-Y2; source: E. coli TG1 ΔtatABCE (also TG1 ΔtatAE), co-expressed from plasmids pF39A-Y1 and pF39A-Y2, in living cells
# Key:
# [1] = target: ssDmsA-Y1 (DmsA signal peptide fused to the N-terminal YFP fragment) (E. coli); assay: split reporter (BiFC, NanoBiT); split YFP (Y1 1-154, Y2 155-238) BiFC in living E. coli TG1 cells (wt; also ΔtatE, ΔtatB, ΔtatC, ΔtatAE, ΔtatABCE); 1 mM IPTG, 8 h at room temperature; median cell fluorescence by flow cytometry, normalised to ssDmsA-Y1/DmsD-Y2, and fluorescence microscopy; substrate or signal peptide with …
# [2] = target: DmsA-Y1 (entire DmsA enzyme fused to the N-terminal YFP fragment) (E. coli) (UniProt P18775); assay: as above
# [3] = target: TatC fused to a YFP fragment (TatC-Y1; TatC-Y2) (E. coli) (UniProt P69423); assay: split reporter (BiFC, NanoBiT); split YFP BiFC in living TG1 ΔtatABCE cells (TatA also in ΔtatAE, TatB/TatC also in ΔtatB and ΔtatC); median fluorescence by flow cytometry against unfused Y1 or Y2 controls, fluorescence microscopy
# [4] = target: TatB fused to a YFP fragment (TatB-Y1; TatB-Y2) (E. coli) (UniProt P69425); assay: as above
# [5] = target: TatC(P48A) fused to a YFP fragment (P48A-Y1; P48A-Y2) (E. coli) (UniProt P69423); assay: as above
# [6] = target: TatC(E103R) fused to a YFP fragment (E103R-Y1; E103R-Y2) (E. coli) (UniProt P69423); assay: as above
# [7] = target: the molecule itself; assay: as above
molecule,measurement,setting,value
DmsD fused to a YFP fragment (DmsD-Y2; DmsD-Y1) (from UniProt P69853 1-204) (natural protein),"BiFC fluorescence, fold over background (unfused Y1 with DmsD-Y2)",[1],5 fold
same,median fluorescence (M),[1],2250
same,ssDmsA binding activity,[1]; scale: relative,1
same,BiFC signal relative to the ssDmsA-Y1/DmsD-Y2 pair,[2],50%
same,DmsA binding activity,[2]; scale: relative,0.62
ssDmsA(KK)-Y1 (domain or fragment),"BiFC signal, fold above background",[3],10.7 fold
same,"BiFC signal, fold above background",[4],5.4 fold
ssDmsA-Y1 (DmsA signal peptide fused to the N-terminal YFP fragment) (domain or fragment),"BiFC signal, fold above background",[3],7 fold
same,"BiFC signal, fold less than with wt TatC",[5],2 fold
same,"BiFC signal, fold above background",[4],3.5 fold
same,"BiFC signal, fold less than with wt TatC",[6],2 fold
B1,BiFC signal relative to the wt TatA homo-oligomers,[7],~2 fold
